Primed or numbered codes have the meaning given here. No end group written: not given here. Me3 = trimethylation of the lysine side chain; Me3(3) = trimethyl (trimethylated lysine)
Target: T1, Polycomb protein chromodomain (Drosophila melanogaster, UniProt P26017)
T1 construct: The chromodomain (a.a. 1-90) of Polycomb protein was expressed as GST-tagged fusion protein; made in house
T1 sequence (P26017 1-90): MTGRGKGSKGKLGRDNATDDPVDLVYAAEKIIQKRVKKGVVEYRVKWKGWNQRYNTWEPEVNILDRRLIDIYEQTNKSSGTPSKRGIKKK
Test: Peptide microarray binding of GST-tagged Polycomb chromodomain
Design: dose or concentration left out as unconfirmed
Conditions: Binder if at least two of three spots pass p-value cutoff 0.001 from background
Excerpt: There are a total of 46 histone peptide sequences (9 a.a. long) with a single lysine-trimethylation site which are conserved between the human and fruit fly H2, H3 and H4 proteins (Table II). These were screened for Polycomb protein chromodomain binding by peptide microarray. Each peptide sequence was screened as triplets, and the fluorescence intensity was quantified with background subtraction individually for each spot from the microarray images by ImageJ^9 and the whole data set was fit to a mixed Gaussian distribution model (FIG. 8, Table III).
Twelve out of the 46 sequences were identified as positive binders under these criteria. Ten of these microarray-identified binders also yielded high mutation matrix score in an independent prediction (Table IV).
The chromodomain (a.a. 1-90) of Polycomb protein was expressed as GST-tagged fusion protein and purified as described in [65]. The purity of the protein was examined by SDS-PAGE electrophoresis followed by both Coomassie staining and western blot using an Anti-GST-HRP conjugate (Santa Cruz Biotechnology). The concentration of purified protein was determined by BCA assay (Amresco). A total of 46 trimethylated histone peptides were synthesized by Sigma Aldrich (desalted, mass spectrometry checked). The peptides were then printed as triplets onto glass slides (ArrayIt), together with a Cy3 marker and an anti-GST (mouse monoclonal) antibody (Thermo) as references.
The peptide microarray was rinsed with TBST buffer (25 mM Tris, 125 mM NaCl, 0.05% Tween-20, pH 8) followed by blocking with 5% non-fat milk in TBST (room temperature 1 hour or 4° C. overnight). The slide was then incubated at 4° C. with Polycomb-GST fusion protein at a final concentration of […] in 5% non-fat milk/TBST for 6 hours. After washing three times for 10 minutes each with TBST, the slide was incubated with an anti-GST mouse monoclonal IgG antibody (Thermo) at a final concentration of 1 μg/mL in 5% non-fat milk/TBST and shaken gently for 1 hour at room temperature. A secondary anti-mouse IgG Dylight-488 conjugated antibody (Thermo) was added to a final concentration of 0.1 μg/mL after three more cycles of 10 minutes washing with TBST. The slide was shaken for 1 hr at room temperature and washed three times with TBST.
The dried microarray slides were scanned using a Hamamatsu NanoZoomer 2.0HT Slide Scanning System (Neuroscience Light Microscopy Facility, UCSD). Data quantification were processed using the microarray processing software ImageJ^9, where the fluorescent intensity of a microarray spot was defined as its own intensity minus the background intensity around it on the scanned image.

Question: Which “Array Verification” value does the source give for “IYIYKVLKQ (also: trimethylated Lys, site not given here)” here?
Answer: NonBinder

Question: How did the “Array Verification” value turn out when “EGTKAVTKY (also: trimethylated Lys, site not given here)” was run?
Answer: Binder

Question: Which “Array Verification” value does the source give for PDTGISSKA (PDTGISSK(Me3(3))A) here?
Answer: NonBinder

Question: With “NLCAIHAKR (NLCAIHAK(Me3(3))R) [9-residue histone peptide, H3_DROME, trimethylated lysine site 115]” as the sequence, how does the “Array Verification” value read?
Answer: NonBinder

Question: For “ASKDLKVKR (not fully specified (residue 8); also: trimethylated lysine, site not given here)”, which “Array Verification” value is on record?
Answer: Binder

Question: How did the “Array Verification” value turn out when “KAGKDSGKA (not fully specified (residue 8); also: trimethylated lysine, site not given here)” was run?
Answer: NonBinder

Question: Which “Array Verification” value does the source give for RIHRLLRKG (RIHRLLRK(Me3(3))G) here?
Answer: Binder

Question: “APATGGVKK (not fully specified (residue 8); also: trimethylated lysine, site not given here) [9-residue histone peptide, H3_DROME, trimethylated lysine site 36]” was tested. Which “Array Verification” value did it give?
Answer: NonBinder

Question: How did the “Array Verification” value turn out when GVIPHIHKS (GVIPHIHK(Me3(3))S) was run?
Answer: NonBinder

Question: Which “Array Verification” value does the source give for “DSGKAKAKA (not fully specified (residue 8); also: trimethylated lysine, site not given here)” here?
Answer: Binder

Question: “PATGGVKKP (not fully specified (residue 8); also: trimethylated lysine, site not given here) [9-residue histone peptide, H3_DROME, trimethylated lysine site 37]” was tested. Which “Array Verification” value did it give?
Answer: NonBinder

Question: For “STELLIRKL (STELLIRK(Me3(3))L) [9-residue histone peptide, H3_DROME, trimethylated lysine site 64]”, which “Array Verification” value is on record?
Answer: NonBinder

Question: With “KRVTIMPKD (not fully specified (residue 8); also: trimethylated lysine, site not given here) [9-residue histone peptide, H3_DROME, trimethylated lysine site 122]” as the sequence, how does the “Array Verification” value read?
Answer: NonBinder

Question: With “GGAKRHRKV (also: trimethylated lysine, site not given here) [9-residue histone peptide, H4_DROME, trimethylated lysine site 20]” as the sequence, how does the “Array Verification” value read?
Answer: Binder

Question: “IQAVLLPKK (not fully specified (residue 8); also: trimethylated lysine, site not given here)” was tested. Which “Array Verification” value did it give?
Answer: Binder

Question: How did the “Array Verification” value turn out when “ARKSTGGKA (also: trimethylated Lys, site not given here) [9-residue histone peptide, H3_DROME, trimethylated lysine site 14]” was run?
Answer: NonBinder

Question: How did the “Array Verification” value turn out when “REIRRYQKS (REIRRYQK(Me3(3))S) [9-residue histone peptide, H3_DROME, trimethylated lysine site 56]” was run?
Answer: Binder

Question: For HAVSEGTKA (HAVSEGTK(Me3(3))A), which “Array Verification” value is on record?
Answer: NonBinder

Question: Which “Array Verification” value does the source give for “REIAQDFKT (REIAQDFK(Me3(3))T) [9-residue histone peptide, H3_DROME, trimethylated lysine site 79]” here?
Answer: NonBinder

Question: For “GKDSGKAKA (not fully specified (residue 8); also: trimethylated lysine, site not given here)”, which “Array Verification” value is on record?
Answer: NonBinder

Question: For “PRKQLATKA (PRKQLATK(Me3)A) [9-residue histone peptide, H3_DROME, trimethylated lysine site 23]”, which “Array Verification” value is on record?
Answer: Binder

Question: With “MDVVYALKR (MDVVYALK(Me3(3))R) [9-residue histone peptide, H4_DROME, trimethylated lysine site 91]” as the sequence, how does the “Array Verification” value read?
Answer: Binder
